Consider one molecule from patent publication US20140308291A1 (INTEGRATED BIOTHERAPEUTICS, published 2014).

This experiment addresses T1, wild-type gamma hemolysin B subunit (HlgB) (Staphylococcus aureus, UniProt Q2FVK1 27-325).
T1 construct: also called Gamma B; gamma hemolysin component B
T1 sequence: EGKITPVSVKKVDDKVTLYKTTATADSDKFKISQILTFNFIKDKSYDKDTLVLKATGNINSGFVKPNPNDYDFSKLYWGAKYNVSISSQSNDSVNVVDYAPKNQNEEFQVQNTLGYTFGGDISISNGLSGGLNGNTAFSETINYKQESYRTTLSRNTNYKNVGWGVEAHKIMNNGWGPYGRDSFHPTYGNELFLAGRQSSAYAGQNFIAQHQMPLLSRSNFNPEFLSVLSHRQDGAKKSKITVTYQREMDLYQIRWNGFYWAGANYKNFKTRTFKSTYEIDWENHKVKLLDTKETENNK
The experiment can be described thus: MPD-based oligomerization assay (40% MPD, 24 hours), SDS-PAGE without boiling.

B1: LukS-PV triple mutant T28F/K97A/S209A (Mut9) (other)
chain: HHHHHHDNNIENIGDGAEVVKRTEDTSSDKWGVFQNIQFDFVKDKKYNKDALILKMQGFINSKTTYYNYKNTDHIKAMRWPFQYNIGLKTNDPNVDLINYLPANKIDSVNVSQTLGYNIGGNFNSGPSTGGNGSFNYSKTISYNQQNYISEVEHQNSKSVQWGIKANSFITSLGKMSGHDPNLFVGYKPYSQNPRDYFVPDNELPPLVHSGFNPAFIATVSHEKGSGDTSEFEITYGRNMDVTHATRRTTHYGNSYLEGSRIHNAFVNRNYTVKYEVNWKTHEIKVKGHN
Consider B1, for which the binding result is “no binding”.
